Measurements taken from the supplement of paper PMC7125110.
± gives the standard error. For some of these results: This sample holds only a part of the variants without activity.

B1: glmS ribozyme (parent)
chain: AUAAAAGCGCCAGAACUACAGAAAUGUAGUUGACGAGGAGGAGGUUUAUCGAAUUUUCGGCGGAUGCCUCCAAA

Key:
Settings in all cases: with glucosamine-6-phosphate
[1] = variants of: B1; assay: kcat; higher = faster cleavage; RNA array
How it was run: (§1)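 kcat and KM were obtained from weighted Michaelis–Menten fits across concentrations of kobs values. Those came from one- or two-exponential decay fits to per-tile medians normalised to baseline and to non-cleaving reference variants. The variants were barcoded ribozymes transcribed in situ by E. coli RNA polymerase on sequenced MiSeq chips and tracked through a hybridised Cy3 probe at 37 °C, with 40 μM to 10 mM glucosamine-6-phosphate in HEPES/KCl/Mg(OAc)2 buffer flowed in.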

[2] = variants of: B1; assay: KM; higher = weaker cofactor use; RNA array
How it was run: as §1

[3] = variants of: B1; assay: self-cleavage kobs at 40 uM GlcN6P; higher = faster cleavage; RNA array
How it was run: as §1

[4] = variants of: B1; assay: self-cleavage kobs at 10000 uM GlcN6P; higher = faster cleavage; RNA array
How it was run: as §1

[5] = variants of: B1; assay: self-cleavage kobs at 640 uM GlcN6P; higher = faster cleavage; RNA array
How it was run: as §1

[6] = variants of: B1; assay: self-cleavage kobs at 2500 uM GlcN6P; higher = faster cleavage; RNA array
How it was run: as §1

[7] = variants of: B1; assay: self-cleavage kobs at 160 uM GlcN6P; higher = faster cleavage; RNA array
How it was run: as §1

| Variant | kcat [1] | KM [2] | self-cleavage kobs at 40 uM GlcN6P [3] | self-cleavage kobs at 10000 uM GlcN6P [4] | self-cleavage kobs at 640 uM GlcN6P [5] | self-cleavage kobs at 2500 uM GlcN6P [6] | self-cleavage kobs at 160 uM GlcN6P [7] |
| --- | --- | --- | --- | --- | --- | --- | --- |
| A14G A42G A53G | 0.0447 ± 0.015 s⁻¹ | 781 ± 340 µM | 0.00216 ± 0.00072 s⁻¹ | 0.0405 ± 0.019 s⁻¹ |  |  |  |
| G13C A15G | 0.000223 ± 1.1e-05 s⁻¹ | 2950 ± 270 µM |  | 0.000176 ± 2.8e-05 s⁻¹ | 4.12e-05 ± 8e-06 s⁻¹ | 9.91e-05 ± 1.3e-05 s⁻¹ |  |
| G13C A15U | 0.000131 ± 1.4e-05 s⁻¹ | 2810 ± 940 µM |  | 0.000103 ± 6.3e-06 s⁻¹ | 3.78e-05 ± 1e-05 s⁻¹ | 5.63e-05 ± 7.5e-06 s⁻¹ |  |
| A14C U47A | 0.00403 ± 0.00081 s⁻¹ | 2760 ± 760 µM | 7.39e-05 ± 9.6e-06 s⁻¹ | 0.00348 ± 0.00048 s⁻¹ | 0.000676 ± 8.4e-05 s⁻¹ | 0.00184 ± 0.0002 s⁻¹ | 0.000213 ± 3.2e-05 s⁻¹ |
| A14C G29C | 0.00095 ± 0.00038 s⁻¹ |  |  | 0.000438 ± 6.2e-05 s⁻¹ | 6.24e-05 ± 1.5e-05 s⁻¹ | 0.000139 ± 2.5e-05 s⁻¹ |  |
| A14G U31A C67G | 0.00052 ± 0.00021 s⁻¹ |  |  | 0.000966 ± 0.0003 s⁻¹ | 0.000237 ± 6e-05 s⁻¹ | 0.000368 ± 0.00011 s⁻¹ | 0.000163 ± 3.6e-05 s⁻¹ |
| A14G G37C A48G | 1.62e-05 ± 5.8e-06 s⁻¹ |  |  |  |  |  |  |
| A14C A53G C58A C70G | 3.76e-05 ± 1.2e-05 s⁻¹ |  |  |  |  |  | 5.16e-05 ± 2e-05 s⁻¹ |
| A14G G37A | 0.00833 ± 0.0023 s⁻¹ | 3890 ± 1400 µM | 0.000119 ± 1.7e-05 s⁻¹ | 0.00564 ± 0.00066 s⁻¹ | 0.00126 ± 0.00017 s⁻¹ | 0.00399 ± 0.0005 s⁻¹ | 0.00027 ± 3.3e-05 s⁻¹ |
| A14C G66U | 0.000181 ± 3.7e-05 s⁻¹ |  |  | 0.000191 ± 2.6e-05 s⁻¹ | 8.12e-05 ± 1.4e-05 s⁻¹ | 9.62e-05 ± 2e-05 s⁻¹ |  |
| G13U U30C | 0.000509 ± 0.00014 s⁻¹ | 3530 ± 1600 µM |  | 0.000354 ± 4.9e-05 s⁻¹ | 6.12e-05 ± 1.2e-05 s⁻¹ | 0.000253 ± 3.1e-05 s⁻¹ | 3.75e-05 ± 1e-05 s⁻¹ |
| G13U U30A | 5.44e-05 ± 3.6e-06 s⁻¹ | 728 ± 260 µM |  | 5.22e-05 ± 8.6e-06 s⁻¹ | 3.03e-05 ± 1.5e-05 s⁻¹ | 3.78e-05 ± 1.1e-05 s⁻¹ |  |
| A14C U56A | 0.00449 ± 0.0013 s⁻¹ | 3990 ± 1600 µM | 7.03e-05 ± 9e-06 s⁻¹ | 0.00318 ± 0.00032 s⁻¹ | 0.000559 ± 6.3e-05 s⁻¹ | 0.00196 ± 0.00028 s⁻¹ | 0.000133 ± 2.8e-05 s⁻¹ |
| G13U C58G | 0.000545 ± 0.00027 s⁻¹ |  |  | 0.000381 ± 3.9e-05 s⁻¹ | 9.89e-05 ± 1.6e-05 s⁻¹ | 0.000127 ± 2e-05 s⁻¹ |  |
| G13A G59A | < 1e-05 s⁻¹ |  |  |  |  |  |  |
| A14G A64G | 0.0806 ± 0.028 s⁻¹ | 2030 ± 810 µM | 0.00184 ± 0.00024 s⁻¹ | 0.0677 ± 0.017 s⁻¹ | 0.0212 ± 0.0065 s⁻¹ |  | 0.00428 ± 0.001 s⁻¹ |
